This note sets out measurements from patent publication US20030198990A1 (UNIVERSITY OF ROCHESTER, published 2003).

To fix the notation:
T1: near full-length AR (nAR, aa 36-918) ligated to transcriptional activator VP16 (human, UniProt P10275 36-918)
T1 sequence: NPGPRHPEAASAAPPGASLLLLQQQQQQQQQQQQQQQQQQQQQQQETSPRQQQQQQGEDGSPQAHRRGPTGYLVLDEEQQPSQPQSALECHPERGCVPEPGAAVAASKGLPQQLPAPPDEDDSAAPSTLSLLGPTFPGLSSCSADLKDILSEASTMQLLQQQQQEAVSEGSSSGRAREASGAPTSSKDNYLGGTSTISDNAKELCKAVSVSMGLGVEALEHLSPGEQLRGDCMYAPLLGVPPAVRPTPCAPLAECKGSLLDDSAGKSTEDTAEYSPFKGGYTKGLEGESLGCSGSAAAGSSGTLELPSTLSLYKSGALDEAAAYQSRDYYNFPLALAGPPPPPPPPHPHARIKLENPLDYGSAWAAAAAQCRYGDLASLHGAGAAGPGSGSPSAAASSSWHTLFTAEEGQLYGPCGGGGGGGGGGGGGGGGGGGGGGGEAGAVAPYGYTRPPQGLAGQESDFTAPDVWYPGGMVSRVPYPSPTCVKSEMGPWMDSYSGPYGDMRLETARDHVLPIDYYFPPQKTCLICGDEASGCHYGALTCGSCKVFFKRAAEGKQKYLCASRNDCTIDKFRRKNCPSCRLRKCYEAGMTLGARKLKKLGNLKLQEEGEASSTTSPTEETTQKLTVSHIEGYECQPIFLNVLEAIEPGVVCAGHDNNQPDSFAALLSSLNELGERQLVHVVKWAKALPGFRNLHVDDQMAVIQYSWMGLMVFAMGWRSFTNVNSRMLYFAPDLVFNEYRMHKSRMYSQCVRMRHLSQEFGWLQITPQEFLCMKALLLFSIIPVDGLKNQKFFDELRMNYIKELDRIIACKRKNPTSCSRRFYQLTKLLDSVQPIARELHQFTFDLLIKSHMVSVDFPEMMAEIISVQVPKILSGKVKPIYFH

T2: human androgen receptor (AR), full length (human, UniProt P10275 1-920)
T2 sequence (looked up): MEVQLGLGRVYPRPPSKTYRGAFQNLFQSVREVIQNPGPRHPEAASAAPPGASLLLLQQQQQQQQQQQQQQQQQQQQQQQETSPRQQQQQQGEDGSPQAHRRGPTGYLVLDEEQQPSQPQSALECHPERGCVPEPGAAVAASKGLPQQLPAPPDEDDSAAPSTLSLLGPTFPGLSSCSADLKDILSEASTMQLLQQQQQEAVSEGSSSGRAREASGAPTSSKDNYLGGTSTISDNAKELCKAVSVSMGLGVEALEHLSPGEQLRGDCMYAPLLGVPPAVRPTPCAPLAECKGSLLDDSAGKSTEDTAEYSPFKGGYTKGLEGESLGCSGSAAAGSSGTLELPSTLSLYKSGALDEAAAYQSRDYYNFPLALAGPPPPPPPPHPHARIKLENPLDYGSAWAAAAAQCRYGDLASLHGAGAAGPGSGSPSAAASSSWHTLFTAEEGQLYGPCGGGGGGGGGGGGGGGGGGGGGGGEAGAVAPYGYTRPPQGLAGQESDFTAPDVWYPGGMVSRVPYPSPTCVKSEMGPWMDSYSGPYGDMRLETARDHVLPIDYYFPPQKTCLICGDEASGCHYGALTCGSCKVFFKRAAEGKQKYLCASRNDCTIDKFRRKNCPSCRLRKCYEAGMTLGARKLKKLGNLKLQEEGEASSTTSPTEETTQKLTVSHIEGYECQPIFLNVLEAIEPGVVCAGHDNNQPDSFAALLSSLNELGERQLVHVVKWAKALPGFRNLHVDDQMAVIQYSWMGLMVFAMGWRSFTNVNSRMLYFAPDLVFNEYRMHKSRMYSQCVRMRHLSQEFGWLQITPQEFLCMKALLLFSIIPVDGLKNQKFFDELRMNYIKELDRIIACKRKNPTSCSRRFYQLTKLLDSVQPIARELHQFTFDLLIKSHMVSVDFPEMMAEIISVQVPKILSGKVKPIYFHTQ

B1: VP16 vector (VP16 activation domain alone) (other)
chain: APPTDVSLGDELHLDGEDVAMAHADALDDFDLDMLGDGDSPGPGFTPHDSAPYGALDMADFEFEQMFTDALGIDEYGG
notes: Control of the mammalian two-hybrid assay; also called pCMX-VP16
B2: VP16-ARA55: full-length ARA55 fused to the activation domain of VP16 (other)
chain: MPRSGAPKERPAEPLTPPPSYGHQPTGQSGESSGASGDKDHLYSTVCKPRSPKPAAPAAPPFSSSSGVLGTGLCELDRLLQELNATQFNITDEIMSQFPSSKVASGEQKEDQSEDKKRPSLPSSPSPGLPKASATSATLELDRLMASLPDFRVQNHLPASGPTQPPVVSSTNEGSPSPPEPTAKGSLDTMLGLLQSDLSRRGVPTQAKGLCGSCNKPIAGQVVTALGRAWHPEHFVCGGCSTALGGSSFFEKDGAPFCPECYFERFSPRCGFCNQPIRHKMVTALGTHWHPEHFCCVSCGEPFGDEGFHEREGRPYCRRDFLQLFAPRCQGCQGPILDNYISALSLLWHPDCFVCRECFAPFSGGSFFEHEGRPLCENHFHARRGSLCPTCGLPVTGRCVSALGRRFHPDHFACTFCLRPLTKGSFQERAGKPYCQPCFLKLFG
notes: Mammalian two-hybrid construct, expressed in DU145 cells
B3: Rb fragment (aa 371-928) ligated to the DBD of GAL4 (other)
chain: MKLLSSIEQACDICRLKKLKCSKEKPKCAKCLKNNWECRYSPKTKRSPLTRAHLTEVESRLERLEQLFLLIFPREDLDMILKMDSLQDIKALLTGLFVQDNVNKDAVTDRLASVETDMPLTLRQHRISATSSSEESSNKGQRQLTVSPHTPVRTVMNTIQQLMMILNSASDQPSENLISYFNNCTVNPKESILKRVKDIGYIFKEKFAKAVGQGCVEIGSQRYKLGVRLYYRVMESMLKSEEERLSIQNFSKLLNDNIFHMSLLACALEVVMATYSRSTSQNLDSGTDLSFPWILNVLNLKAFDFYKVIESFIKAEGNLTREMIKHLERCEHRIMESLAWLSDSPLFDLIKQSKDREGPTDHLESACPLNLPLQNNHTAADMYLSPVRSPKKKGSTTRVNSTANAETQATSAFQTQKPLKSTSLSLFYKKVYRLAYLRLNTLCERLLSEHPELEHIIWTLFQHTLQNEYELMRDRHLDQIMMCSMYGICKVKNIDLKFKIIVTAYKDLPHAVQETFKRVLIKEEEYDSIIVFYNSVFMQRLKTNILQYASTRPPTLSPIPHIPRSPYKFPSSPLRIPGGNIYISPLKSPYKISEGLPTPTKMTPRSRILVSIGESFGTSEKFQKINQMVCNSDRVLKRSAEGSNPPKPLKKLRFDIEGSDEADGSKHLPGESKFQQKLAEMTSTRTRMQKQKMNDSMDTSNKEEK
B4: ARA70 (other, UniProt Q13772 1-614, looked up)
chain: MNTFQDQSGSSSNREPLLRCSDARRDLELAIGGVLRAEQQIKDNLREVKAQIHSCISRHLECLRSREVWLYEQVDLIYQLKEETLQQQAQQLYSLLGQFNCLTHQLECTQNKDLANQVSVCLERLGSLTLKPEDSTVLLFEADTITLRQTITTFGSLKTIQIPEHLMAHASSANIGPFLEKRGCISMPEQKSASGIVAVPFSEWLLGSKPASGYQAPYIPSTDPQDWLTQKQTLENSQTSSRACNFFNNVGGNLKGLENWLLKSEKSSYQKCNSHSTTSSFSIEMEKVGDQELPDQDEMDLSDWLVTPQESHKLRKPENGSRETSEKFKLLFQSYNVNDWLVKTDSCTNCQGNQPKGVEIENLGNLKCLNDHLEAKKPLSTPSMVTEDWLVQNHQDPCKVEEVCRANEPCTSFAECVCDENCEKEALYKWLLKKEGKDKNGMPVEPKPEPEKHKDSLNMWLCPRKEVIEQTKAPKAMTPSRIADSFQVIKNSPLSEWLIRPPYKEGSPKEVPGTEDRAGKQKFKSPMNTSWCSFNTADWVLPGKKMGNLSQLSSGEDKWLLRKKAQEVLLNSPLQEEHNFPPDHYGLPAVCDLFACMQLKVDKEKWLYRTPLQM
notes: also called AR associated protein ARA70
B5: C-terminal domain of ARA55 (amino acids 251-444) (other)
chain: EKDGAPFCPECYFERFSPRCGFCNQPIRHKMVTALGTHWHPEHFCCVSCGEPFGDEGFHEREGRPYCRRDFLQLFAPRCQGCQGPILDNYISALSLLWHPDCFVCRECFAPFSGGSFFEHEGRPLCENHFHARRGSLCPTCGLPVTGRCVSALGRRFHPDHFACTFCLRPLTKGSFQERAGKPYCQPCFLKLFG
notes: also called ARA55251-444; C-terminus of ARA55
B6: AR-LBD (aa 590-918) ligated to transcriptional activator VP16 (receptor)
chain: GKQKYLCASRNDCTIDKFRRKNCPSCRLRKCYEAGMTLGARKLKKLGNLKLQEEGEASSTTSPTEETTQKLTVSHIEGYECQPIFLNVLEAIEPGVVCAGHDNNQPDSFAALLSSLNELGERQLVHVVKWAKALPGFRNLHVDDQMAVIQYSWMGLMVFAMGWRSFTNVNSRMLYFAPDLVFNEYRMHKSRMYSQCVRMRHLSQEFGWLQITPQEFLCMKALLLFSIIPVDGLKNQKFFDELRMNYIKELDRIIACKRKNPTSCSRRFYQLTKLLDSVQPIARELHQFTFDLLIKSHMVSVDFPEMMAEIISVQVPKILSGKVKPIYFH
notes: range 590-918; Mammalian two-hybrid construct, DU145 cells; also called pCMX-VP16-AR
B7: PR-LBD (receptor, UniProt P06401 679-933, looked up)
chain: QDIQLIPPLINLLMSIEPDVIYAGHDNTKPDTSSSLLTSLNQLGERQLLSVVKWSKSLPGFRNLHIDDQITLIQYSWMSLMVFGLGWRSYKHVSGQMLYFAPDLILNEQRMKESSFYSLCLTMWQIPQEFVKLQVSQEEFLCMKVLLLLNTIPLEGLRSQTQFEEMRSSYIRELIKAIGLRQKGVVSSSQRFYQLTKLLDNLHDLVKQLHLYCLNTFIQSRALSVEFPEMMSEVIAAQLPKILAGMVKPLLFHKK
notes: domain: LBD; Control in the mammalian two-hybrid assay; the construct is not described

Experiment [1] concerns the target T3, GAL0AR: hormone binding domain of wtAR fused to the GAL4 DBD (human, UniProt P04386 1-147; P10275 625-920).
T3 construct: range 1-147;domain: hinge and LBD; also called pGAL0-AR (wild-type); GAL4DBD fused to E region of human AR
The experiment is described as follows: mammalian two-hybrid, CAT reporter, DU145 cells.

Experiment [2] has as its target T4, GAL0 empty vector (GAL4 DBD alone) (UniProt P04386 1-147).
T4 construct: range 1-147; Control of the mammalian two-hybrid assay; also called pGAL0
Briefly: mammalian two-hybrid, CAT reporter, DU145 cells.

Experiment [3] has as its target T1, near full-length AR (nAR, aa 36-918) …. Briefly: cell-based or functional assay.
In experiment [4] the target is B3. The experiment is described as follows: mammalian two-hybrid, CAT reporter, DU145 cells.
Experiment [5] deals with T2, human androgen receptor (AR), full …. Briefly: cell-based or functional assay.
For experiment [6] the target is unchanged. Briefly: assay not given.
Experiment [7] has as its target T1, near full-length AR (nAR, aa 36-918) …. Briefly: mammalian two-hybrid, CAT reporter, DU145 cells.

As to B1, in experiment [1], the binding result is “no binding”.
On to B2, for which, in experiment [2], the binding result was “no binding”.
In the case of B3, in experiment [3], the “CAT activity, mammalian two-hybrid system in DU145 cells” value turned out to be 3 fold.
As for B4, in experiment [4], the binding result is “no binding”. The “induced CAT activity in mammalian two-hybrid assay” value in experiment [5] turned out to be 12 fold.
For the molecule B5, the binding result in experiment [6] was “binds”.
Regarding B6, in experiment [4], the binding result is reported as “no binding”.
Regarding B7, the binding result in experiment [7] was “no binding”.
